Assay results as given in paper PMC9775641, “Conformational Dynamics of the Receptor-Binding Domain of the SARS-CoV-2 Spike Protein” (Biomedicines, 2022).

Molecular target: T1, Wild-type (WT) receptor-binding domain (RBD) of SARS-CoV-2 spike protein, 330-528 aa fragment (SARS-CoV-2, wild type (Wuhan-1), UniProt P0DTC2)
T1 construct: also called WT RBD; wild-type RBD
Experiment: SPR
Settings: both partners purified

B1: SARS-CoV-2 neutralizing antibody P4A1 (full-length IgG1) (antibody, V domains shown)
VH: EVQLVESGGGLIQPGGSLRLSCAASGFIVSSNYMSWVRQAPGKGLEWVSIIYSGGSTFYADSVKGRFTISRDNSKNTLYLQMNSLRVEDTAVYYCARDLQELGSLDYWGQGTLVTVSS
VL: DIQMTQSPSSVSASVGDRVTITCRASQGISSWLAWYQQKPGKAPKLLIYAASSLQSGVPSRFSGSGSGTDFTLTISSLQPEDFATYYCQEANSFPYTFGQGTKLEIK
notes: also called P4AI; Ab
B1 was tested. Which kon did it give?
The kon was 770000 M⁻¹ s⁻¹.
